B1: Gamma-aminobutyric acid receptor subunit beta-3 (Rattus norvegicus (Rat)), P63079 (parent)
chain: MWGFAGGRLFGIFSAPVLVAVVCCAQSVNDPGNMSFVKETVDKLLKGYDIRLRPDFGGPPVCVGMNIDIASIDMVSEVNMDYTLTMYFQQYWRDKRLAYSGIPLNLTLDNRVADQLWVPDTYFLNDKKSFVHGVTVKNRMIRLHPDGTVLYGLRITTTAACMMDLRRYPLDEQNCTLEIESYGYTTDDIEFYWRGGDKAVTGVERIELPQFSIVEHRLVSRNVVFATGAYPRLSLSFRLKRNIGYFILQTYMPSILITILSWVSFWINYDASAARVALGITTVLTMTTINTHLRETLPKIPYVKAIDMYLMGCFVFVFLALLEYAFVNYIFFGRGPQRQKKLAEKTAKAKNDRSKSEINRVDAHGNILLAPMDVHNEMNEVAGSVGDTRNSAISFDNSGIQYRKQSMPKEGHGRYMGDRSIPHKKTHLRRRSSQLKIKIPDLTDVNAIDRWSRIVFPFTFSLFNLVYWLYYVN

Variants of: B1
Details: with ap2m1_rat Ap2m1, P84092
Sequence of ap2m1_rat Ap2m1, P84092 (P84092 whole entry): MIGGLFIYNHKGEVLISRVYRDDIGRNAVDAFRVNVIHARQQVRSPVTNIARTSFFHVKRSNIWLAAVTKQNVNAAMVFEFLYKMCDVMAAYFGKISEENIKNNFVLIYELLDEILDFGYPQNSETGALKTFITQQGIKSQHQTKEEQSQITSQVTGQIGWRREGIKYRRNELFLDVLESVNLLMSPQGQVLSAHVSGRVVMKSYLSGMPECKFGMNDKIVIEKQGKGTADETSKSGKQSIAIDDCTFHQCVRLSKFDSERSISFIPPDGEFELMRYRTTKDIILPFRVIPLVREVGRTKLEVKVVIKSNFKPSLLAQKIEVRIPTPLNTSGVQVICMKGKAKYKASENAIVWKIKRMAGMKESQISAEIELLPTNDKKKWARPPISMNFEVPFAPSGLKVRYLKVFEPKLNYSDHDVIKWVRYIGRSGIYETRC

Variant	effect of a mutation on the interaction
S432A;S433A	decreasing interaction strength

Source: IntAct's records for PubMed 19617557
